Experimental data reported in the supplement of paper PMC7125110.
± gives the standard error. Fewer inactive variants are shown than the library holds.

B1: glmS ribozyme (parent)
chain: AUAAAAGCGCCAGAACUACAGAAAUGUAGUUGACGAGGAGGAGGUUUAUCGAAUUUUCGGCGGAUGCCUCCAAA

Legend:
Conditions in all cases: with glucosamine-6-phosphate
[1] = variants of: B1; experiment: self-cleavage kobs at 40 uM GlcN6P; higher = faster cleavage; RNA array
Outline: (§1)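 Sequenced MiSeq chips were the platform: E. coli RNA polymerase transcribed barcoded ribozyme variants on them in situ, and a hybridised Cy3 probe tracked these at 37 °C. After glucosamine-6-phosphate (40 μM to 10 mM) in HEPES/KCl/Mg(OAc)2 buffer was flowed in, tiles were imaged over ~14 h. Signals normalised to baseline and to non-cleaving reference variants were reduced to per-tile medians and fit to one- or two-exponential decays to obtain kobs. kcat and KM were derived through weighted Michaelis–Menten fits across concentrations.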

[2] = variants of: B1; experiment: self-cleavage kobs at 640 uM GlcN6P; higher = faster cleavage; RNA array
Outline: as §1

[3] = variants of: B1; experiment: self-cleavage kobs at 10000 uM GlcN6P; higher = faster cleavage; RNA array
Outline: as §1

[4] = variants of: B1; experiment: self-cleavage kobs at 160 uM GlcN6P; higher = faster cleavage; RNA array
Outline: as §1

[5] = variants of: B1; experiment: self-cleavage kobs at 2500 uM GlcN6P; higher = faster cleavage; RNA array
Outline: as §1

Row | Variant | self-cleavage kobs at 40 uM GlcN6P [1] | self-cleavage kobs at 640 uM GlcN6P [2] | self-cleavage kobs at 10000 uM GlcN6P [3] | self-cleavage kobs at 160 uM GlcN6P [4] | self-cleavage kobs at 2500 uM GlcN6P [5]
1 | G7A U46C | < 1e-05 s⁻¹ | < 1e-05 s⁻¹ | < 1e-05 s⁻¹ | – | –
2 | G7A A33C | < 1e-05 s⁻¹ | < 1e-05 s⁻¹ | < 1e-05 s⁻¹ | < 1e-05 s⁻¹ | –
3 | G7U G32C | < 1e-05 s⁻¹ | < 1e-05 s⁻¹ | < 1e-05 s⁻¹ | – | < 1e-05 s⁻¹
4 | G7U G32A | < 1e-05 s⁻¹ | < 1e-05 s⁻¹ | < 1e-05 s⁻¹ | < 1e-05 s⁻¹ | < 1e-05 s⁻¹
5 | A6U U55G G62C C70A | < 1e-05 s⁻¹ | – | – | – | –
6 | G7C C11U A42G A64U | < 1e-05 s⁻¹ | – | < 1e-05 s⁻¹ | – | –
7 | G7A A12C U30G | < 1e-05 s⁻¹ | – | – | – | –
8 | G7A C50G C68A | 9.01e-05 ± 1.9e-05 s⁻¹ | – | 0.000134 ± 2.4e-05 s⁻¹ | – | –
9 | G7U A14U U55C G63U C70A | < 1e-05 s⁻¹ | < 1e-05 s⁻¹ | – | – | < 1e-05 s⁻¹
10 | C8A A48U | < 1e-05 s⁻¹ | < 1e-05 s⁻¹ | – | – | < 1e-05 s⁻¹
11 | G7C A12G | < 1e-05 s⁻¹ | – | < 1e-05 s⁻¹ | – | < 1e-05 s⁻¹
12 | G7A C10U U45G C70G | < 1e-05 s⁻¹ | < 1e-05 s⁻¹ | < 1e-05 s⁻¹ | – | < 1e-05 s⁻¹
13 | A6U C11U G44U | < 1e-05 s⁻¹ | < 1e-05 s⁻¹ | < 1e-05 s⁻¹ | – | < 1e-05 s⁻¹
14 | A6U U49G | < 1e-05 s⁻¹ | < 1e-05 s⁻¹ | – | < 1e-05 s⁻¹ | < 1e-05 s⁻¹
15 | G7A G62C | < 1e-05 s⁻¹ | < 1e-05 s⁻¹ | – | < 1e-05 s⁻¹ | < 1e-05 s⁻¹
16 | G7U U69A | 3.92e-05 ± 1.7e-05 s⁻¹ | – | – | 0.000853 ± 0.00032 s⁻¹ | –
17 | G7U U69G | 0.000114 ± 2.1e-05 s⁻¹ | 0.000299 ± 7e-05 s⁻¹ | 0.000226 ± 8.9e-05 s⁻¹ | – | 6.87e-05 ± 1.8e-05 s⁻¹
18 | A6U A12U U65G | < 1e-05 s⁻¹ | – | – | – | –
19 | A6G U30C G35A A39G G40A G66A | < 1e-05 s⁻¹ | – | < 1e-05 s⁻¹ | – | –
20 | A6U G9A U65G C70A | < 1e-05 s⁻¹ | – | – | – | –
21 | A6U A36U C70U | < 1e-05 s⁻¹ | – | – | – | –
22 | A6U G13U U47A | < 1e-05 s⁻¹ | – | – | – | –
23 | G7A U47A | < 1e-05 s⁻¹ | – | – | < 1e-05 s⁻¹ | –
24 | A6U C11U C16A U30C C50G | 0.000167 ± 2.9e-05 s⁻¹ | – | 0.000181 ± 2.9e-05 s⁻¹ | – | 0.000224 ± 9e-05 s⁻¹

Row | Variant | self-cleavage kobs at 40 uM GlcN6P [1] | self-cleavage kobs at 640 uM GlcN6P [2] | self-cleavage kobs at 10000 uM GlcN6P [3] | self-cleavage kobs at 160 uM GlcN6P [4] | self-cleavage kobs at 2500 uM GlcN6P [5]
25 | G7U U46G | < 1e-05 s⁻¹ | < 1e-05 s⁻¹ | < 1e-05 s⁻¹ | < 1e-05 s⁻¹ | < 1e-05 s⁻¹
26 | G7A G29A U55C G60U | < 1e-05 s⁻¹ | – | – | – | < 1e-05 s⁻¹
27 | G7U G51C | < 1e-05 s⁻¹ | < 1e-05 s⁻¹ | – | – | < 1e-05 s⁻¹
28 | G7U G9C A42G A52U | < 1e-05 s⁻¹ | < 1e-05 s⁻¹ | – | – | –
29 | A6U A12U G32C A33C C50A | < 1e-05 s⁻¹ | – | < 1e-05 s⁻¹ | – | –
30 | G7C U45G | < 1e-05 s⁻¹ | < 1e-05 s⁻¹ | < 1e-05 s⁻¹ | < 1e-05 s⁻¹ | < 1e-05 s⁻¹
31 | A6G U30G G35U U45C G59U | < 1e-05 s⁻¹ | – | < 1e-05 s⁻¹ | – | –
32 | A6U A12C U56A G62A | < 1e-05 s⁻¹ | – | – | – | –
33 | A6U C11A A53U | < 1e-05 s⁻¹ | < 1e-05 s⁻¹ | < 1e-05 s⁻¹ | – | –
34 | A6G G60U | < 1e-05 s⁻¹ | < 1e-05 s⁻¹ | – | < 1e-05 s⁻¹ | –
35 | A6U C58A G59C A64G | < 1e-05 s⁻¹ | – | < 1e-05 s⁻¹ | – | –
36 | G7A A12G U30C U49A C71U | < 1e-05 s⁻¹ | – | – | – | –
37 | A6G G60U C68A | < 1e-05 s⁻¹ | < 1e-05 s⁻¹ | < 1e-05 s⁻¹ | – | < 1e-05 s⁻¹
38 | A6U G7U C58G U69G | 0.000141 ± 4.3e-05 s⁻¹ | – | 0.000123 ± 3.5e-05 s⁻¹ | – | –
39 | A6U C34U C58U | < 1e-05 s⁻¹ | – | – | – | –
40 | G7U G44U | < 1e-05 s⁻¹ | < 1e-05 s⁻¹ | < 1e-05 s⁻¹ | < 1e-05 s⁻¹ | –
41 | A6U G44C C50A | < 1e-05 s⁻¹ | – | – | – | –
42 | G7A A15G C61U C71U | < 1e-05 s⁻¹ | – | – | < 1e-05 s⁻¹ | < 1e-05 s⁻¹
43 | G7A G40A A52C | < 1e-05 s⁻¹ | < 1e-05 s⁻¹ | < 1e-05 s⁻¹ | – | –
44 | G7U G60C | < 1e-05 s⁻¹ | < 1e-05 s⁻¹ | < 1e-05 s⁻¹ | < 1e-05 s⁻¹ | –
45 | G7C A42C C61U | < 1e-05 s⁻¹ | – | – | – | –
46 | G7A U31C A48U | < 1e-05 s⁻¹ | – | – | – | –
47 | C8A A33U G40A A64G C68A | < 1e-05 s⁻¹ | < 1e-05 s⁻¹ | < 1e-05 s⁻¹ | – | < 1e-05 s⁻¹
48 | G7A G43U | < 1e-05 s⁻¹ | < 1e-05 s⁻¹ | < 1e-05 s⁻¹ | < 1e-05 s⁻¹ | < 1e-05 s⁻¹
